Experimental data as given in the PETadex activity labels (doi:10.1186/s13568-014-0044-9).

Experiments:
[1] = substrate: p-NP-C4; details: pH 8.5; 25 °C
[2] = substrate: pNPB; assay: Proxy for plastic degradation [Km]; details: pH 8.5
[3] = substrate: pNPB; assay: Proxy for plastic degradation [kcat] (s⁻¹); details: pH 8.5
[4] = substrate: pNPB; assay: Proxy for plastic degradation [Residual activity]; details: pH 8.5
[5] = substrate: pNPB; assay: Proxy for plastic degradation [Relative activity]

| Protein | Km [1] [µM] | kcat [1] [s⁻¹] | kcat/Km [1] [M⁻¹ s⁻¹] | Proxy for plastic degradation [2] [µM] | Proxy for plastic degradation [3] | Proxy for plastic degradation ([3]; 25 °C) | Proxy for plastic degradation ([4]; 50 °C, 0 h) [%] | Proxy for plastic degradation ([4]; 50 °C, 10 h) [%] | Proxy for plastic degradation ([4]; 50 °C, 20 h) [%] | Proxy for plastic degradation ([4]; 50 °C, 30 h) [%] | Proxy for plastic degradation ([4]; 50 °C, 45 h) [%] | Proxy for plastic degradation ([4]; 50 °C, 60 h) [%] | Proxy for plastic degradation ([4]; 55 °C, 0 h) [%] | Proxy for plastic degradation ([4]; 55 °C, 10 h) [%] | Proxy for plastic degradation ([4]; 55 °C, 20 h) [%] | Proxy for plastic degradation ([4]; 55 °C, 30 h) [%] | Proxy for plastic degradation ([4]; 55 °C, 45 h) [%] | Proxy for plastic degradation ([4]; 55 °C, 60 h) [%] | Proxy for plastic degradation ([4]; 60 °C, 0 h) [%] | Proxy for plastic degradation ([4]; 60 °C, 10 h) [%] | also measured |
| --- | --- | --- | --- | --- | --- | --- | --- | --- | --- | --- | --- | --- | --- | --- | --- | --- | --- | --- | --- | --- | --- |
| unnamed (protein) MKRTLKRALSLLPAAALAASALVAASPAQAAANPYQRGPNPTEASITAARGPFNTAEITVSRLSVSGFGGGKIYYPTTTSEGTFGAIAISPGFTAYWSSLEWLGHRLASQGFVVIGIETNTTLDQPDQRGQQLLAALDYLTQRSAVRDRVDASRLAVAGHSMGGGGSLEAAKARTSLKAAIPLAPWNLDKTWPEVRTPTLIIGGELDAVAPVATHSIPFYNSLSNAPEKAYLELDNASHFFPNITNTQMAKYMIAWMKRFIDDDTRYTQFLCPPPSTGLLSDFSDARFTCPM | 83 | 12.4 | 149000 | 83.1 | 12.4 | 12.4 | 100 | 85 | 75 | 70 | 45 | 40 | 100 | 15 | 15 | 15 | 14 | 15 | 100 | 15 | Proxy for plastic degradation ([4]; 60 °C, 20 h): 15%; Proxy for plastic degradation ([4]; 60 °C, 30 h): 15%; Proxy for plastic degradation ([4]; 60 °C, 45 h): 15%; Proxy for plastic degradation ([4]; 60 °C, 60 h): 14%; Proxy for plastic degradation ([5]; 30 °C): 25%; Proxy for plastic degradation ([5]; 40 °C): 40%; Proxy for plastic degradation ([5]; 50 °C): 75%; Proxy for plastic degradation ([5]; 55 °C): 100%; Proxy for plastic degradation ([5]; 60 °C): 80%; Proxy for plastic degradation ([5]; 65 °C): 50%; Proxy for plastic degradation ([5]; 70 °C): 10%; Proxy for plastic degradation ([5]; pH 6.5): 10%; Proxy for plastic degradation ([5]; pH 7): 22%; Proxy for plastic degradation ([5]; pH 7.5): 55%; Proxy for plastic degradation ([5]; pH 8): 95%; Proxy for plastic degradation ([5]; pH 8.5): 100%; Proxy for plastic degradation ([5]; pH 9): 90%; Proxy for plastic degradation ([5]; pH 9.5): 65% |
| unnamed (protein) MSLRKSFGLLSATAALVAGLVAAPPAQAAANPYQRGPDPTESLLRAARGPFAVSEQSVSRLSVSGFGGGRIYYPTTTSQGTFGAIAISPGFTASWSSLAWLGPRLASHGFVVIGIETNTRLDQPDSRGRQLLAALDYLTQRSSVRNRVDASRLAVAGHSMGGGGTLEAAKSRTSLKAAIPIAPWNLDKTWPEVRTPTLIIGGELDSIAPVATHSIPFYNSLTNAREKAYLELNNASHFFPQFSNDTMAKFMISWMKRFIDDDTRYDQFLCPPPRAIGDISDYRDTCPHT | 88.8 | 2.3 | 25900 | 88.8 | 2.3 | 2.3 | 100 | 100 | 105 | 110 | 115 | 114 | 100 | 103 | 95 | 90 | 89 | 80 | 100 | 35 | Proxy for plastic degradation ([4]; 60 °C, 20 h): 32%; Proxy for plastic degradation ([4]; 60 °C, 30 h): 30%; Proxy for plastic degradation ([4]; 60 °C, 45 h): 25%; Proxy for plastic degradation ([4]; 60 °C, 60 h): 25%; Proxy for plastic degradation ([5]; 30 °C): 35%; Proxy for plastic degradation ([5]; 40 °C): 50%; Proxy for plastic degradation ([5]; 50 °C): 70%; Proxy for plastic degradation ([5]; 55 °C): 85%; Proxy for plastic degradation ([5]; 60 °C): 100%; Proxy for plastic degradation ([5]; 65 °C): 70%; Proxy for plastic degradation ([5]; 70 °C): 35%; Proxy for plastic degradation ([5]; pH 6.5): 10%; Proxy for plastic degradation ([5]; pH 7): 22%; Proxy for plastic degradation ([5]; pH 7.5): 50%; Proxy for plastic degradation ([5]; pH 8): 85%; Proxy for plastic degradation ([5]; pH 8.5): 100%; Proxy for plastic degradation ([5]; pH 9): 95%; Proxy for plastic degradation ([5]; pH 9.5): 75% |
